# doi:10.1101/2021.03.29.437564 (bioRxiv, 2021)
# B1: ParD antitoxin (PA0125) from Pseudomonas aeruginosa, wild type (natural protein)
# chain: MSTVVSFRADDALVAALDELARATHRDRPYHLRQALAQYLERQQWQVAAIDEGLADANAGRLLEHIEIEKRWGLQ
# Target: the molecule itself
# Assay: direct infusion mass spectrometry
protein,measurement,value
B1,stoichiometry N,2
